{
  "source": "patent US7410801",
  "about": "(UNIVERSITY OF DELHI DEPARTMENT OF BIOCHEMISTRY, dated 2008)",
  "binders": {"B1": {"name": "D-cmyc fusion protein displayed on lambda phage λDcDL1 (other)", "chain (part 1 of 2)": "MTSKETFTHYQPQGNSDPAHTATAPGGLSAKAPAMTPLMLDTSSRKLVAWDGTTDGAAVGILAVAADQTSTTLTFYKSGTFRYEDVLWPEAASDETKKRTAFAGTAISIV", "chain (part 2 of 2)": "EQKLISEEDL", "notes": "also called DcDL1 phages"}},
  "biological_target": "mesothelin (UniProt Q13421 296-598)",
  "sequence (Q13421 other isoform, or with tags, fused parts or gaps limits assumed)": "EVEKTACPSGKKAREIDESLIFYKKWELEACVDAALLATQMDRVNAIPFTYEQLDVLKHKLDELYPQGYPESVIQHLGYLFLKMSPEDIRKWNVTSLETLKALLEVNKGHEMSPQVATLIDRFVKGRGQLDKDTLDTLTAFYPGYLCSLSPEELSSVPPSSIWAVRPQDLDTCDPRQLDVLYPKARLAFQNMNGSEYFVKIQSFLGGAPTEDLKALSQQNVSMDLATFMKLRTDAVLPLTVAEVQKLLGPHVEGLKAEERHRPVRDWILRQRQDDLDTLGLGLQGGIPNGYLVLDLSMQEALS",
  "experiment": "ELISA, purified phages added to mesothelin coated wells",
  "data": [
    {"binder": "B1", "values": [
      {"measurement": "binding result", "value": "no binding"}
    ]}
  ]
}
